Ends that are not written are not given here. * marks the point of attachment. 125I = [125I]*
What was measured:
TGR26 [1] = target: T1, TGR26 (Rattus norvegicus, UniProt Q56UD9); test: Inhibition of intracellular cAMP production using TGR26 expressing CHO cells; type: cell-based; details: 2 μM forskolin, various concentrations
T1 construct: expressed in transfected cells; whole cells in A1, membrane fraction in A2 and A3
T1 sequence (Q56UD9 1-329): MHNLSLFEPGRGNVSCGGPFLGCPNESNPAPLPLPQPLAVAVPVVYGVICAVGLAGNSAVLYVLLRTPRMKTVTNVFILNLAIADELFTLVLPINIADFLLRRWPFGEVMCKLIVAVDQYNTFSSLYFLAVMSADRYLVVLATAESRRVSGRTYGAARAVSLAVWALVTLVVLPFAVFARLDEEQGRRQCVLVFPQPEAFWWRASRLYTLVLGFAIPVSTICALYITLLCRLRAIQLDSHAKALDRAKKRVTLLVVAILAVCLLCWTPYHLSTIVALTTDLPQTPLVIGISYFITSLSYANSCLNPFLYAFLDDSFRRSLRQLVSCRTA
Experimental: TGR26 expressing CHO cells prepared in Example 3 were seeded on 24-well plate at 5×10^4 cells/well and cultivated for 48 hours. The cells were washed with MEMα buffer (pH 7.4) containing 0.2 mM 3-isobutyl-methylxanthine, 0.05% BSA (bovine serum albumine) and 20 mM HEPES [hereafter, MEMα buffer (pH 7.4) containing 0.2 mM 3-isobutyl-methylxanthine, 0.05% BSA (bovine serum albumine) and 20 mM HEPES may be referred to as reaction buffer]. Then, 0.5 ml of the reaction buffer was added to the cells and the suspension was incubated for 30 minutes in the incubator. After removal of the reaction buffer and newly adding 0.25 ml of the reaction buffer to the cells, an appropriate concentration of sample in DMSO solution and 0.25 ml of the reaction buffer containing 2 μM forskolin were added to the cells and the mixture was reacted at 37° C. for 30 minutes. For termination of the reaction, 100 μl of 20% perchloric acid was added. Subsequently, the mixture was stood on ice for an hour to extract intracellular cAMP. The cAMP level in the extract was measured using the cAMP EIA Kit (Amersham Pharmacia Biotech).
The human homologue of GPR8 ligand peptide consisting of 23 residues represented by […], which was obtained in Reference Example 12 (hereafter, sometimes referred to as hGPR8L (1-23)), or the human homologue of GPR8 ligand peptide consisting of 30 residues represented by […], which was obtained in Reference Example 13 (hereafter, sometimes referred to as hGPR8L (1-30)) was administered at various concentrations to […] TGR26 expressing CHO cells by the method described in Example 4, and an inhibiting activity of intracellular cAMP production was measured.
In the figure, when an amount subtracted intracellular cAMP level with the reaction buffer from intracellular cAMP level with the reaction buffer containing forskolin is indicated as 100%, the inhibiting activity of cAMP synthesis is indicated as an amount subtracted intracellular cAMP level with hGPR8L (1-23) or hGPR8L (1-30) from intracellular cAMP level with the reaction buffer by representation of percentage (%).

TGR26 [2] = target: T1, TGR26; test: GTPγS binding activity using a membrane fraction of TGR26 expressing CHO cells; type: biochemical; details: various concentrations
Experimental: Promoting activity for [^35S]-guanosine 5′-(γ-thio) triphosphate (GTPγS) binding to a membrane fraction of TGR26 expressing cells was assayed in accordance with the following method.
To 1×10^8 of TGR26 expressing CHO cells, 10 ml of homogenating buffer (10 mM NaHCO3, 5 mM EDTA, 0.5 mM PMSF (phenylmethylsulfonyl fluoride), 1 μg/ml Pepstatin, 4 μg/ml E-64, 20 μg/ml Leupeptin) was added, and the cells were disrupted using Polytron (12,000 rpm, 1 minute). Supernatant was obtained from the disrupted cell suspension by centrifugation (1,000 g, 15 minutes). In addition, the supernatant was ultracentrifuged (Beckman Type 30 rotor, 30,000 rpm, 1 hour), and precipitate obtained was kept as a membrane fraction of TGR26 expressing CHO cells.
The membrane fraction of TGR26 expressing CHO cells was diluted with membrane dilution buffer (50 mM Tris HCl buffer (pH 7.4), 5 mM MgCl2, 150 mM NaCl, 1 μM GDP, 0.1% BSA) to prepare a cell membrane fraction solution for assay at 30 μg/ml of protein concentration. To 200 μl of membrane fraction solution for assay, 2 μl of 50 nM [^35S]-guanosine 5′-(γ-thio) triphosphate (NEN) and 2 μl of sample/DMSO solution having an appropriate concentration were added. Then the mixture was incubated at 25° C. for one hour. The mixture was filtrated, and further the filter was washed twice with 1.5 ml of washing buffer (50 mM Tris HCl buffer (pH 7.4), 5 mM MgCl2, 1 mM EDTA, 0.1% BSA). Finally, a radioactivity on the filter was determined by liquid scintillation counter.
Various concentration of hGPR8L (1-23) or hGPR8L (1-30) was mixed with a membrane fraction of the TGR26 expressing cell in accordance with the method described in Example 6, and a promoting activity of GTPγS binding was assayed.

TGR26 [3] = target: T1, TGR26; test: Receptor binding using [125I-Tyr10]-hGPR8L (1-23) and membrane fraction of TGR26 expressing CHO cells; details: membrane fraction of TGR26 expressing cells; in words
Experimental: Using [^125I-Tyr^10]-hGPR8L (1-23) prepared by the method described in Reference Example 15 and a cell membrane fraction prepared from TGR26 expressing cells as described in Example 6, a receptor binding assay was carried out as follows.
(§1) Cell membrane fraction prepared from TGR26 expressing cells was diluted to various concentration with assay buffer (25 mM Tris-HCl, 5 mM EDTA, 0.05% CHAPS (3-[(3-Cholamidopropyl) Dimethyl-Ammonio]-1-Propanesulfonate), 0.1% BSA, 0.5 mM PMSF, 1 μg/ml Pepstatin, 20 μg/ml Leupeptin, 4 μg/ml E-64, pH 7.4), and 200 μl each of the diluent was dispensed into polypropilene test tube (Falcon 2053). In order to determine an amount of maximum binding, 2 μl of DMSO and 2 μl of 7 nM [^125I-Tyr^10]-hGPR8L (1-23) were added to the membrane fraction solution. Further, in order to determine a non-specific binding, 2 μl of 100 μM hGPR8L (1-23)/DMSO solution and 2 μl of 7 nM [^125I-Tyr^10]-hGPR8L (1-23) were added to the membrane fraction solution. The reaction was done at 25° C. for 75 minutes, and the reaction mixture was filtered by suction filtration using Whatman glassfilter (GF-F) treated with polyethyleneimine. In addition, the filter was washed twice with 1.5 ml of washing buffer (25 mM Tris-HCl, 5 mM EDTA, 0.05% CHAPS, 0.1% BSA, pH 7.4). After filtration, a radioactivity remaining on the filter was counted using γ-counter, and an amount of specific binding was estimated by subtracting an amount of non-specific binding from an amount of maximum binding.
Where the concentration of membrane fraction was set to 3 μg/ml, an inhibition for the specific binding of [125I-Tyr^10]-hGPR8L (1-23) to the membrane fraction of TGR26 expressing cells by hGPR8L (1-23) and hGPR8L (1-30) was investigated.
A receptor binding activity of human- and porcine-homologue derivatives of GPR8 ligand peptide obtained in the reference examples was measured using a membrane fraction of TGR26 expressing CHO cells and [^125I-Tyr^10]-hGPR8L (1-23) by the method described in Example 8. The receptor binding activity is represented by concentration of 50% inhibition for binding (IC50 value).

[4] = target: T2, TGR26, the rat-derived novel G protein-coupled receptor protein (rat, UniProt Q56UD9 1-329); test: radioligand binding to membrane fraction of TGR26 expressing CHO cells, filtration, gamma counting
T2 construct: Expressed in CHO dhfr- cells from pAK-rGPR7; also called rat TGR26; TGR26 receptor
T2 sequence: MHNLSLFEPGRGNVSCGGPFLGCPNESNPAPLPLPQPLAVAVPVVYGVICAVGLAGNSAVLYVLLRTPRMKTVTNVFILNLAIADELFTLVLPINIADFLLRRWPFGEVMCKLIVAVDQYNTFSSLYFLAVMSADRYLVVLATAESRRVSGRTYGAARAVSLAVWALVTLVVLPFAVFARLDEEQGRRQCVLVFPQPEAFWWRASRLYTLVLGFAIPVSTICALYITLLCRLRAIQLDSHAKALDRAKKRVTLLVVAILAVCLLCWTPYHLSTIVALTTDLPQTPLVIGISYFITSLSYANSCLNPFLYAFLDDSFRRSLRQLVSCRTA
Experimental: (§2) Using [¹²⁵I-Tyr¹⁰]-hGPR8L (1-23) prepared by the method described in Reference Example 15 and a cell membrane fraction prepared from TGR26 expressing cells as described in Example 6, a receptor binding assay was carried out as follows.
as §1, with “[¹²⁵I-Tyr¹⁰]-hGPR8L” for “[^125I-Tyr^10]-hGPR8L”, “In addition, the filter was washed twice with 1.5 ml of washing buffer (25 mM Tris-HCl, 5 mM EDTA, 0.05% CHAPS, 0.1% BSA, pH 7.4).” left out, “binding. […]” for “binding.”

[5] = target: T2, TGR26, the rat-derived novel G …; test: competition with [125I-Tyr10]-hGPR8L (1-23) for membrane fraction of TGR26 expressing CHO cells
Experimental: as §2
as §1, with “[¹²⁵I-Tyr¹⁰]-hGPR8L” for “[^125I-Tyr^10]-hGPR8L”, “In addition, the filter was washed twice with 1.5 ml of washing buffer (25 mM Tris-HCl, 5 mM EDTA, 0.05% CHAPS, 0.1% BSA, pH 7.4).” left out, “binding. […]” for “binding.”

## Trp-Tyr-Lys-His-Val-Ala-Ser -Pro-Arg-Tyr-His-Thr-Val-Gly-Arg-Ala-Ala-Gly-Leu-Leu-Met-Gly-Leu [SEQ ID NO: 73]
TGR26 [1]
  inhibiting activity of intracellular cAMP production: intracellular cAMP production of the TGR26 expressing CHO cells was inhibited depending on the concentration
TGR26 [2]
  promoting activity of GTPγS binding: GTPγS binding of the TGR26 expressing CHO cells was promoted depending on the concentration
TGR26 [3]
  inhibition for the specific binding of [125I-Tyr10]-hGPR8L (1-23): can also be confirmed

## WYKHVASPRY(125I)HTVGRAAGLLMGL-OH [[^125I-Tyr^10]-hGPR8L (1-23)]
[4]
  binding result: binds

## WYKHVASPRYHTVGRAAGLLMGL-OH (also called human GPR8 ligand (1-23)) [human homologue of GPR8 ligand peptide consisting of 23 residues, hGPR8L (1-23)]
[5]
  IC50: 0.12 nM

— patent US20040029178A1, “Novel g protein-coupled receptor proteins and dnas thereof” (priority 2000, published 2004)
